We go through three molecules from patent US20060148057A1, “Thioredoxin mutants and uses thereof” (priority 2002, published 2006).

Numbering of substitutions follows the chain as printed. Names may count otherwise.

In one assay the test system is BAEC. In words: GFP co-transfection killing assay, ASK1-induced EC death. The assay is classed as cell-based, Bovine. Conditions: for inhibitory effect on ASK1-induced apoptosis under TNF treatment: TNF 10 ng/ml. The protocol:
Trx inhibits ASK1-induced JNK activation and caspase 3 activity. BAEC were co-transfected with ASK1 and Trx constructs in 1:1 ratio as indicated: control vector alone (Ctrl), ASK1 with VC, Trx-WT, Trx-CS, Trx-C32S or Trx-C35S. 24 h post-transfection, cell lysates were used to examine JNK and caspase 3 activity. […] JNK activity was measured by an in vitro kinase assay GST-c-Jun as a substrate. Trx expression was determined by Western blot anti-Flag. […] Caspase 3 activity was measured by Sigma's Caspase 3 Fluorometric Assay Kit in the absence or presence of caspase 3 inhibitor Ac-DEVD-CHO. Assay was performed as duplicates. Caspase 3 activities were normalized with the Ctrl group (as zero). Data are presented from mean of two independent experiments. […] 6-well BAEC were co-transfected with a GFP expression construct and ASK1/Trx constructs as indicated (1 μg GFP, 1 μg ASK1, 1 μg Trx, total DNA was kept to 3 μg by adding VC): control vector alone (Ctrl), ASK1 with VC, Trx-WT, Trx-CS, Trx-C32S or Trx-C35S. Cells were cultured in the presence or absence of TNF (10 ng/ml). 48 h after transfection, GFP-positive cells were counted as survival cells. The survival rate is shown (Ctrl group as 100%). Data are presented from mean of four independent experiments. […] BAEC were transfetced as in FIG. 6C. 6-well BAEC were transfetced with GFP (1 μg) and Trx -expressing construct (1 μg each) as indicated. 24 h after transfection, cells were either left untreated or treated with TNF (10 ng/ml) plus CHX (10 μg/ml) for 24 h. GFP-positive cells were counted as survival cells. […] Data are presented from mean of four independent experiments.
Quantitation of cell killing: Cell killing assay was performed as described previously with a modification (Slowik M R et al. Evidence that tumor necrosis factor triggers apoptosis in human endothelial cells by interleukin-1-converting enzyme-like protease- dependent and -independent pathways. Lab Invest. 77:257-67 (1997)). EC were transfected with a combination of GFP reporter plasmid and the control vector or experimental expression plasmids for ASK1 and Trx at 1:1 ratio as indicated. GFP-positive cells were visualized under a fluorescence microscope and counted as number of survival cells.
ASK1-induced EC death was measured by a GFP co-transfection killing assay as previously described with minor modifications (Slowik M R Evidence that tumor necrosis factor triggers apoptosis in human endothelial cells by interleukin-1-converting enzyme-like protease- dependent and -independent pathways. Lab Invest. 77:257-67 (1997)). Overexpression of ASK1 in EC (BAEC or HUVEC) induced 60% cell death at 48 h post-transfection, i.e., 40% of GFP-positive (survival) EC compared to the control cells (Ctrl as 100% survival, FIG. 6C).

The next assay deals with Akt. In words: ASK1-induced inhibition of IGF1-induced Akt phosphorylation in EC (Western blot p-Ser473). It is filed as cell-based, Bovine. The following applies: co-expression with ASK1, IGF1 10 ng/ml for 10 min. The protocol: EC were transfected with plasmids as indicated: control vector (VC), HA-Akt, HA-ASK1 with different Trx constructs. Cells were treated with IGF1 (10 ng/ml for 10 min). Akt hosphorylation was examined by western blot with phospho-Akt (Ser473)-specific antibody (p-Akt). Akt and ASK1 expression were determined by western blot with anti-HA.
To determine a role of ASK1 in ROS/TNF-induced IR (impairment of insulin/IGF1 signaling) in EC, the effects of ASK1 activation on IGF1-induced phosphorylation of IRS-1, Akt and eNOS activity were examined. IGF-1 was chosen because cultured EC express IGF1 receptor at higher level than that of insulin receptor. BAEC were transfected with VC or ASK1 expression construct, cells were treated with IGF1 (10 ng/ml) for indicated time. SOCS3 was used as a control which has been shown as a suppressor of IRS-1 activation. Activation (tyrosine phosphorylation) of IRS-1 was determined by IP/Western blot with anti-phosphotyrosine. Akt phosphorylation at Ser-473, a hallmarker for Atk activity was determined by Western blot with p-Ser473-specific antibody. The eNOS enzymatic activity was also by an enzymatic assay based on the conversion of 3H-L-arginine to 3H-citrulline (Calbiochem, Nitric Oxide Synthase Assay Kit).
To determine if Trx protects ASK1-induced inhibition on IGF1 signaling, Trx and ASK1 were coexpressed as in the above experiments. […] To test this, the effects of TZDs (insulin-sensitizers) and statins on ASK1 activity were tested. […] Inhibition of ASK1 may due to their anti-oxidant activities of these drugs which may be indirect by inhibiting TNF-dependent generation of ROS.

B1: thioredoxin (protein)
chain: MVKQIESKTAFQEALDAAGDKLVVVDFSATWCGPCKMIKPFFHSLSEKYSNVIFLEVDVDDCQDVASECEVKCMPTFQFFKKGQKVGEFSGANKEKLEATINELV
modifications: Flag tag or GST fusion
notes: Flag-tagged or GST fusion
Regarding B1, in the assay with BAEC, the ASK1-ΔN-induced apoptosis result is given as “did not inhibit” and the “inhibitory effect on ASK1-induced apoptosis under TNF treatment” value (“inhibitory effect” for short) was “diminished the inhibitory effect”. Further, in the assay on Akt, the “ASK1-induced reduction of Akt phosphorylation” value (from here on “ASK1-induced reduction”) is on record as “prevents”.

B2: Trx-C32S: C32S single mutant of Trx at the catalytic site, SEQ ID NO:2 (protein)
chain: B1 chain with C32S
With B2, in the assay with BAEC, the “inhibitory effect” value is “retained their inhibitory effects”. For the same molecule, in the assay with Akt, the “ASK1-induced reduction” value is “prevents”.

B3: Trx-C35S: C35S single mutant of Trx at the catalytic site, SEQ ID NO:3 (protein)
chain: B1 chain with C35S
For the molecule B3, in the assay with BAEC, the “inhibitory effect” value is given as “retained their inhibitory effects”. The “ASK1-induced reduction” value in the assay with Akt is recorded as “prevents”.
